Results: patent US20250154275A1 (SHANGHAI JUNSHI BIOSCIENCES, published 2025)
Residue numbers refer to the chain shown, from its start.

Legend:
[1] = target: T1, CD20 on the surface of Raji cells (human, UniProt P11836 1-297); test: flow cytometry on Raji cells (CD20 positive), fluorescent secondary antibody, µg/mL is the unit of the axis; fit value of a flat curve
T1 construct: whole, on cells; Raji cells are described as human B lymphoma cells, CD20 positive; also called human CD20
T1 sequence (looked up): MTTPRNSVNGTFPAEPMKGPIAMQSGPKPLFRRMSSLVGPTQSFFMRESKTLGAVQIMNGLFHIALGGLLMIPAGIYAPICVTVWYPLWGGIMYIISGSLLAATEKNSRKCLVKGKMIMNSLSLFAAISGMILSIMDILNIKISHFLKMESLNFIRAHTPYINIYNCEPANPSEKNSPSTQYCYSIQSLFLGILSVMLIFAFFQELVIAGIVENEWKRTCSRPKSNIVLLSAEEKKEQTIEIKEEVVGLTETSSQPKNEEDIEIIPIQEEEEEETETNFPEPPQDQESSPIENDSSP

[2] = target: T2, human CD3 on the surface of Jurkat cells (human, UniProt P07766 23-207; P04234 22-171; P09693 23-182); test: flow cytometry on Jurkat cells (CD3-positive), MFI dose curve
T2 construct: whole, on cells

[3] = target: T1, CD20 on the surface of Raji cells; test: flow cytometry on Raji cells (CD20 positive), MFI dose curve
[4] = target: T3, recombinant human CD3ε (Novoprotein, C578) (human, UniProt P07766 23-126); test: ELISA, plate coated with recombinant human CD3ε, anti-human IgG4 Fc-HRP detection
T3 construct: Bought protein coated on the ELISA plate

[5] = target: T4, cynomolgus monkey CD3e overexpressed on the surface of CHO cells (cynomolgus monkey, UniProt Q95LI5 22-198); test: flow cytometry on CHO cells overexpressing cynomolgus monkey CD3e
T4 construct: whole, on cells; also called CHO Cyno CD3e cells

[6] = target: T4, cynomolgus monkey CD3e overexpressed on …; test: flow cytometry on CHO cells overexpressing cynomolgus monkey CD3e, fluorescent secondary antibody

T4 sequence (Q95LI5 22-198): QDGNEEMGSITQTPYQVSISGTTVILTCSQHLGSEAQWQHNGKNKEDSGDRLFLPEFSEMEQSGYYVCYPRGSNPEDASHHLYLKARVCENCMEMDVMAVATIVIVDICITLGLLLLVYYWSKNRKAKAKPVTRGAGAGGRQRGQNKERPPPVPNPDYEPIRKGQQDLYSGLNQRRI
T2 sequence (P07766 23-207, chain 1 of 3): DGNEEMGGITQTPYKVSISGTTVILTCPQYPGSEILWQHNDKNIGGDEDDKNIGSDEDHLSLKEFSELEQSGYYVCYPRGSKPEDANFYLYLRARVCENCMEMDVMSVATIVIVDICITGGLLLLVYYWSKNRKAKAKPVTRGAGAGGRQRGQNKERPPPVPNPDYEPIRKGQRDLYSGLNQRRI
T2 sequence (P04234 22-171, chain 2 of 3): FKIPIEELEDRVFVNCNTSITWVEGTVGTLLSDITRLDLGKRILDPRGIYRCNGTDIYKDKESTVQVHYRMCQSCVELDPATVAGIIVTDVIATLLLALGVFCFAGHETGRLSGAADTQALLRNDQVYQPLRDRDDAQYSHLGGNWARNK
T2 sequence (P09693 23-182, chain 3 of 3): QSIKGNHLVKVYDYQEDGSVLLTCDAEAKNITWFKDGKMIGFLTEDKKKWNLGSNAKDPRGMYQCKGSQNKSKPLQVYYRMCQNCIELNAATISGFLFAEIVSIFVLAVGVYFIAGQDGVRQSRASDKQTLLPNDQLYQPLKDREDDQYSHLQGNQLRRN
T3 sequence (P07766 23-126 limits assumed): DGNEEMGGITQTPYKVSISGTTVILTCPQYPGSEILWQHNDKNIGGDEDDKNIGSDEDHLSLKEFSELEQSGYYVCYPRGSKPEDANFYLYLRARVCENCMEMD

Molecule: Anti-KLH IgG4 (antibody)
- EC50 [1]: 52 µg/mL

Molecule: REGN1979 (Regeneron Pharmaceuticals) (bispecific antibody)
- EC50 [2]: 4.7 µg/mL
- EC50 [3]: 30.1 µg/mL

B1: bispecific antibody molecule TZT6 (bispecific antibody, human IgG4 S228P, kappa)
heavy: QVQLVQSGAEVKKPGSSVKVSCKASGYAFSYSWINWVRQAPGQGLEWMGRIFPGDGDTDYNGKFKGRVTITADKSTSTAYMELSSLRSEDTAVYYCARNVFDGYWLVYWGQGTLVTVSSASTKGPSVFPLAPCSRSTSESTAALGCLVKDYFPEPVTVSWNSGALTSGVHTFPAVLQSSGLYSLSSVVTVPSSSLGTKTYTCNVDHKPSNTKVDKRVESKYGPPCPPCPAPEFLGGPSVFLFPPKPKDTLMISRTPEVTCVVVDVSQEDPEVQFNWYVDGVEVHNAKTKPREEQFNSTYRVVSVLTVLHQDWLNGKEYKCKVSNKGLPSSIEKTISKAKGQPREPQVYTLPPCQEEMTKNQVSLWCLVKGFYPSDIAVEWESNGQPENNYKTTPPVLDSDGSFFLYSRLTVDKSRWQEGNVFSCSVMHEALHNHYTQKSLSLSLGK
light: DIVMTQTPLSLPVTPGEPASISCRSSKSLLHSNGITYLYWYLQKPGQSPQLLIYQMSNLVSGVPDRFSGSGSGTDFTLKISRVEAEDVGVYYCAQNLELPYTFGGGTKVEIKRTVAAPSVFIFPPSDEQLKSGTASVVCLLNNFYPREAKVQWKVDNALQSGNSQESVTEQDSKDSTYSLSSTLTLSKADYEKHKVYACEVTHQGLSSPVTKSFNRGEC
chain: QAVVTQEPSLTVSPGGTVTLTCRSSTGAVTTSNYANWVQQKPGQAPRGLIGGTNKRAPGTPARFSGSLLGGKAALTLSGVQPEDEAEYYCALWYSNLWVFGCGTKLTVLGGGGSGGGGSGGGGSGGGGSEVQLVESGGGLVQPGGSLKLSCAASGFTFSTYAMNWVRQAPGKCLEWVGRIRSKYNNYATYYADSVKDRFTISRDDSKNSLYLQMNSLKTEDTAVYYCVRHGNFGNSYVSWFAYWGQGTLVTVSSGGGGSGGGGSESKYGPPCPPCPAPEFLGGPSVFLFPPKPKDTLMISRTPEVTCVVVDVSQEDPEVQFNWYVDGVEVHNAKTKPREEQFNSTYRVVSVLTVLHQDWLNGKEYKCKVSNKGLPSSIEKTISKAKGQPREPQVCTLPPSQEEMTKNQVSLSCAVKGFYPSDIAVEWESNGQPENNYKTTPPVLDSDGSFFLVSRLTVDKSRWQEGNVFSCSVMHEALHNRFTQKSLSLSLGK
notes: also called anti-CD3/CD20 bispecific antibody TZT6
- EC50 [2]: 4.44 µg/mL
- EC50 [3]: 3.67 µg/mL
- EC50 [4]: 0.0214 µg/mL
- binding result [5]: binds

B2: bispecific antibody molecule TZT7 (bispecific antibody, human IgG4 S228P, kappa)
heavy: B1 heavy with Y348C, C353S, W365S, L367A, Y406V, H434R, Y435F
light: B1 light
chain: QVQLVQSGAEVKKPGSSVKVSCKASGYAFSYSWINWVRQAPGQGLEWMGRIFPGDGDTDYNGKFKGRVTITADKSTSTAYMELSSLRSEDTAVYYCARNVFDGYWLVYWGQGTLVTVSSASTKGPSVFPLAPCSRSTSESTAALGCLVKDYFPEPVTVSWNSGALTSGVHTFPAVLQSSGLYSLSSVVTVPSSSLGTKTYTCNVDHKPSNTKVDKRVASGGGGSGGGGSQAVVTQEPSLTVSPGGTVTLTCRSSTGAVTTSNYANWVQQKPGQAPRGLIGGTNKRAPGTPARFSGSLLGGKAALTLSGVQPEDEAEYYCALWYSNLWVFGCGTKLTVLGGGGSGGGGSGGGGSGGGGSEVQLVESGGGLVQPGGSLKLSCAASGFTFSTYAMNWVRQAPGKCLEWVGRIRSKYNNYATYYADSVKDRFTISRDDSKNSLYLQMNSLKTEDTAVYYCVRHGNFGNSYVSWFAYWGQGTLVTVSSGGGGSGGGGSESKYGPPCPPCPAPEFLGGPSVFLFPPKPKDTLMISRTPEVTCVVVDVSQEDPEVQFNWYVDGVEVHNAKTKPREEQFNSTYRVVSVLTVLHQDWLNGKEYKCKVSNKGLPSSIEKTISKAKGQPREPQVYTLPPCQEEMTKNQVSLWCLVKGFYPSDIAVEWESNGQPENNYKTTPPVLDSDGSFFLYSRLTVDKSRWQEGNVFSCSVMHEALHNHYTQKSLSLSLGK
notes: IgG4 Fc (G4 FC in the vector's name); also called anti-CD3/CD20 bispecific antibody TZT7
- EC50 [2]: 26.6 µg/mL
- EC50 [3]: 0.515 µg/mL
- EC50 [4]: 0.0856 µg/mL
- binding result [5]: binds

B3: JSCD3 (antibody, human IgG4 S228P, kappa, V domains shown)
VH: EVQLVESGGGLVQPGGSLKLSCAASGFTFSTYAMNWVRQAPGKGLEWVGRIRSKYNNYATYYADSVKDRFTISRDDSKNSLYLQMNSLKTEDTAVYYCVRHGNFGNSYVSWFAYWGQGTLVTVSS
VL: QAVVTQEPSLTVSPGGTVTLTCRSSTGAVTTSNYANWVQQKPGQAPRGLIGGTNKRAPGTPARFSGSLLGGKAALTLSGVQPEDEAEYYCALWYSNLWVFGGGTKLTVLR
notes: humanized from murine SP34; also called humanized anti-CD3 antibody JSCD3; positive control
- binding result [6]: binds
